Data reported in patent publication US20250352661A1 (MYTHIC THERAPEUTICS, published 2025).
Numbering of substitutions follows the chain as printed. Names and notes keep the numbering of the source.

T1: Human LRRC15 Protein, His Tag, Acro Biosystems (human, UniProt Q8TF66 22-538, limits assumed)
T1 construct: not shown: His tag
T1 sequence (looked up): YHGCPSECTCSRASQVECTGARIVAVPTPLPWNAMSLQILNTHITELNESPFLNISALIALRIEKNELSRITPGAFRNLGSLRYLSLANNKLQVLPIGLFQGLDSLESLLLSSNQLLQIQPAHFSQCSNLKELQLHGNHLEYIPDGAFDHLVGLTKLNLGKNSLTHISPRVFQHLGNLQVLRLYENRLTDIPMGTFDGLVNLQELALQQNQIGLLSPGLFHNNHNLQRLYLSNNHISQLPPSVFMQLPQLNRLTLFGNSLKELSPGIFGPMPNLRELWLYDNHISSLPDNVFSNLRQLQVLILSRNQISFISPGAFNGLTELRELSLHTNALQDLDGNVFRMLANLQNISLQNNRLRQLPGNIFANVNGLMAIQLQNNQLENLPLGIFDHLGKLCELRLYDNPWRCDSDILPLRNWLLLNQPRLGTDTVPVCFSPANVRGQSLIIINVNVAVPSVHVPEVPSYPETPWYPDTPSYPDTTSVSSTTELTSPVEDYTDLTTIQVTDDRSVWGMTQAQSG

T2: Human LRRC15 Protein, His Tag (Acro Biosystems) (human, UniProt Q8TF66 22-538, limits assumed)
T2 construct: Bought protein with His tag
T2 sequence (looked up): T1 sequence (looked up)

B1: MYT9510 (antibody, V domains shown)
VH: EVQLVESGGGLVQPGGSLRLSCTASGFSFSSSHWICWVRQAPGKGLEWVGCIYAGSIGSTYYASWAKGRFTISRDTSKNTVYLQMNSLRAEDTAVYYCARAPNDIYNYYFNLWGQGTLVTVSS
VL: EIVMTQSPSTLSASVGDRVIITCQASDNIYNYLAWYQQKPGKAPKLLIYYASTLASGVPSRFSGSGSGAEFTLTISSLQPDDFATYYCQSGYVSKSSTFGQGTKLTVL
notes: Humanized 29F1 with VL E27D; captured by anti-human Fc sensor
B2: MYT9519 (antibody, V domains shown)
VH: B1 VH
VL: B1 VL with D27E, A51D
notes: also called hu29F1 VL A51D
B3: MYT9520 (antibody, V domains shown)
VH: B1 VH
VL: B1 VL with D27E, S52D
notes: Humanized 29F1 with VL S52D; captured by anti-human Fc sensor
B4: MYT9533 (antibody, V domains shown)
VH: B1 VH
VL: B1 VL with D27E, S97D
notes: also called hu29F1 VL S97D
B5: MYT9524 (antibody, V domains shown)
VH: B1 VH
VL: B1 VL with D27E, S56D
notes: Humanized 29F1 with VL S56D; captured by anti-human Fc sensor
B6: MYT9530 (antibody, V domains shown)
VH: B1 VH
VL: B1 VL with D27E, S94D
notes: Humanized 29F1 with VL S94D; captured by anti-human Fc sensor
B7: MYT9532 (antibody, V domains shown)
VH: B1 VH
VL: B1 VL with D27E, S96D
notes: also called hu29F1 VL S96D
B8: MYT9525 (antibody, V domains shown)
VH: B1 VH
VL: B1 VL with D27E, Q89D
notes: also called hu29F1 VL Q89D
B9: MYT9526 (antibody, V domains shown)
VH: B1 VH
VL: B1 VL with D27E, S90D
notes: also called hu29F1 VL S90D
B10: MYT9516 (antibody, V domains shown)
VH: B1 VH
VL: B1 VL with D27E, L33D
notes: also called hu29F1 VL L33D
B11: MYT9522 (antibody, V domains shown)
VH: B1 VH
VL: B1 VL with D27E, L54D
notes: Humanized 29F1 with VL L54D; captured by anti-human Fc sensor
B12: MYT9511 (antibody, V domains shown)
VH: B1 VH
VL: B1 VL with D27E, N28D
notes: Humanized 29F1 with VL N28D; captured by anti-human Fc sensor
B13: MYT9514 (antibody, V domains shown)
VH: B1 VH
VL: B1 VL with D27E, N31D
notes: Humanized 29F1 with VL N31D; captured by anti-human Fc sensor
B14: MYT7912 (antibody, V domains shown)
VH: QQQLVESGGGLVKPGASLTLTCKASGFSFSGSYWICWVRQAPGKGLEWIGCINGGSLDITYYASWAKGRFTISKASSTTVTLQKTSLTAADTATYFCASHTSYTAYGNFYFNLWGPGTLVTVSS
VL: AQVLTQTASPVSAAVGGTVTINCQSSQSVLNNNWLAWYQQKPGQPPKLLIYDASSLASGVPSRFKGSGSGTQFTLTISDLESDDAATYYCQGEFSCGSADCNAFGGGTEVVVKG
notes: rabbit 24D9 VH D100H; chimeric, human constant regions
B15: MYT7913 (antibody, V domains shown)
VH: B14 VH with H100D, T101H
VL: B14 VL
notes: rabbit 24D9 VH T101H; chimeric, human constant regions
B16: MYT7917 (antibody, V domains shown)
VH: B14 VH with H100D, A105H
VL: B14 VL
notes: rabbit 24D9 VH A105H; chimeric, human constant regions
B17: MYT7918 (antibody, V domains shown)
VH: B14 VH with H100D, Y106H
VL: B14 VL
notes: rabbit 24D9 VH Y106H; chimeric, human constant regions
B18: MYT7916 (antibody, V domains shown)
VH: B14 VH with H100D, T104H
VL: B14 VL
notes: rabbit 24D9 VH T104H; chimeric, human constant regions
B19: MYT7921 (antibody, V domains shown)
VH: B14 VH with H100D, F109H
VL: B14 VL
notes: rabbit 24D9 VH F109H; chimeric, human constant regions
B20: MYT7920 (antibody, V domains shown)
VH: B14 VH with H100D, N108H
VL: B14 VL
notes: rabbit 24D9 VH N108H; chimeric, human constant regions
B21: MYT7924 (antibody, V domains shown)
VH: B14 VH with H100D, N112H
VL: B14 VL
notes: rabbit 24D9 VH N112H; chimeric, human constant regions
B22: MYT7915 (antibody, V domains shown)
VH: B14 VH with H100D, Y103H
VL: B14 VL
notes: rabbit 24D9 VH Y103H; chimeric, human constant regions
B23: MYT7923 (antibody, V domains shown)
VH: B14 VH with H100D, F111H
VL: B14 VL
notes: rabbit 24D9 VH F111H; chimeric, human constant regions
B24: MYT7925 (antibody, V domains shown)
VH: B14 VH with H100D, L113H
VL: B14 VL
notes: rabbit 24D9 VH L113H; chimeric, human constant regions
B25: MYT7922 (antibody, V domains shown)
VH: B14 VH with H100D, Y110H
VL: B14 VL
notes: rabbit 24D9 VH Y110H; chimeric, human constant regions
B26: MYT7914 (antibody, V domains shown)
VH: B14 VH with H100D, S102H
VL: B14 VL
notes: rabbit 24D9 VH S102H; chimeric, human constant regions
B27: MYT7919 (antibody, V domains shown)
VH: B14 VH with H100D, G107H
VL: B14 VL
notes: rabbit 24D9 VH G107H; chimeric, human constant regions

Molecular target: T1, Human LRRC15 Protein, His Tag, Acro …
Test: BLI; dissociation pH 7.4 black, pH 5.4 grey [D00022 FIG. 5B]
Procedure: The resulting diluted supernatants were then captured on an anti-human Fc sensor (Forte Bio). A baseline was established using 1×PBST (50 mM Potassium Phosphate Buffer+150 mM NaCl+0.05% Tween 20) pH 7.4, and the […] was associated with 50 nM of LRRC15 (Human LRRC15 Protein, His Tag, Acro Biosystems) in 1×PBST pH 7.4 for 120 sec to generate an association curve. In the dissociation phase, the antibody-antigen complex on the sensor was exposed to 1×PBST pH 7.4 or pH 5.4, for 300 sec. Association and dissociation phase curves were examined for the starting ABPC antibody (with no substitutions) and each corresponding antibody variant at pH 5.4 and pH 7.4 to inform on two criteria: a) enhanced dissociation (i.e., higher koff values) at pH 5.4 due to histidine substitution compared to the starting ABPC, (with no substitutions), and b) reduced dissociation at pH 7.4 (i.e., lower koff values) compared to pH 5.4 in the antibody variant itself and with the starting ABPC (with no substitutions).
Briefly, CDRs in the 15G7 light chain were identified using the methods described in Example 9, and for each CDR, residues falling under either or both Kabat and IMGT CDR definitions were called as CDR residues. To generate pH-dependent sequence variants, individual amino acid residues within the light chain CDRs were systematically substituted with a histidine, one at a time (rabbit, MYT6122-6151). Desirable mutations were transferred to a humanized framework MYT8413-8487). After allowing for four days of protein expression, cell culture supernatants were collected, quantified by SDS-PAGE analysis, and the pH dependence of the variant was evaluated using biolayer interferometry (BLI) on an Octet RED 96e instrument (as described in Example 9). […]

binding result	Binder
binds	B1
binds	B2
binds	B3
binds	B4
binds	B5
binds	B6
binds	B7
binds	B8
binds	B9
binds	B10
binds	B11
binds	B12
binds	B13

Molecular target: T2, Human LRRC15 Protein, His Tag (Acro …)
Test: BLI; dissociation pH 7.4 black, pH 5.4 grey [2/2); D00014 FIG. 2B (2/2]

binding result	Binder
no binding (tested: 50 nM LRRC15)	B14
binds	B15
binds	B16
binds	B17
binds	B18
no binding (tested: 50 nM LRRC15)	B19
no binding (tested: 50 nM LRRC15)	B20
binds	B21
no binding (tested: 50 nM LRRC15)	B22
binds	B23
binds	B24
binds	B25
binds	B26
no binding (tested: 50 nM LRRC15)	B27
